Data reported in paper PMC10732415, “Bacteriophage-encoded 24B_1 molecule resembles herpesviral microRNAs and plays a crucial role in the development of both the virus and its host”.

Target: Hfq (Escherichia coli, UniProt P0A6X3 1-102)
Test: EMSA; 1 mM Mg2+; Hfq up to 100 nM
Details: protein: recombinant; chain copies: 6; label: 32P; predicted 4-bp helix

Sequence of Hfq (P0A6X3 whole entry): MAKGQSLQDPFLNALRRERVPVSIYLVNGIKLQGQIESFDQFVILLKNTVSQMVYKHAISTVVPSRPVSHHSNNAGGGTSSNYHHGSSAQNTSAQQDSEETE

Binder: UAACGUUAAGUUGACUCGGG (ssRNA) [mature 24B_1 RNA, 20 nt]
- binding result: no binding
